In publication PMC3269963 (Journal of Immunology (Baltimore, Md. : 1950), 2011):

Target: recombinant His-tag PCNA (proliferating cell nuclear antigen) (human, UniProt P12004 1-261)
Test: SPR

Sequence of recombinant His-tag PCNA (proliferating cell nuclear antigen) (P12004 whole entry): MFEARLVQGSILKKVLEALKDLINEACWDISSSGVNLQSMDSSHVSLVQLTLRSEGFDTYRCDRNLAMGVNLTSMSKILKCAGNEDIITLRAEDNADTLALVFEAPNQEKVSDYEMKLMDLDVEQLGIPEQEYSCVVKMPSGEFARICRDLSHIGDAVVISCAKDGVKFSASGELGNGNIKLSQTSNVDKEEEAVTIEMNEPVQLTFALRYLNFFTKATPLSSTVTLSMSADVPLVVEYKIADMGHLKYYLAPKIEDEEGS

Kd: 3.4 nM
B1: NKp44-Ig (Fc fusion, UniProt O95944 22-192, looked up)
chain: QSKAQVLQSVAGQTLTVRCQYPPTGSLYEKKGWCKEASALVCIRLVTSSKPRTMAWTSRFTIWDDPDAGFFTVTMTDLREEDSGHYWCRIYRPSDNSVSKSVRFYLVVSPASASTQTSWTPRDLVSSQTQTQSCVPPTAGARQAPESPSTIPVPSQPQNSTLRPGPAAPIA
